Assay results published in US20220119541A1.

Target: human GITR (full length, on cells) (human) (UniProt Q9Y5U5)
Assay: FACS dot plot, spleen cells of GITR humanized (B-hGITR) mice, FITC against mTcRβ PerCP [panel hIgG1]

human GITR (full length, on cells) (human), sequence (Q9Y5U5 26-241): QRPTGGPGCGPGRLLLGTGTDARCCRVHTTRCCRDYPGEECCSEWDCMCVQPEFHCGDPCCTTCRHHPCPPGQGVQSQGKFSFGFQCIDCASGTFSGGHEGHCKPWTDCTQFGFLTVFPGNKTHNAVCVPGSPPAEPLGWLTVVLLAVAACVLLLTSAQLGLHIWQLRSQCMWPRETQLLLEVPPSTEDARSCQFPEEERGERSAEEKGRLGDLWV

FL3-H, FL1-H subset (percent of cells in the FITC-high, mTcRβ-positive gate): 1.08%
Substance: isotype control IgG (antibody)
